Assay results: the supplement of paper PMC10567573

B1: MIA2 (parent)
chain: DMVSNIELPTRIHEEVYFEPSSSK

Variants of: B1
Assay: protein stability index of a GFP-peptide fusion (GPS, HEK-293T) (PSI 1-6); higher = more stable
Conditions: c terminus: a fixed tail appended
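Note: lentivirally expressed fusions sorted by FACS into six bins by GFP to DsRed ratio, PSI derived from sequencing read proportions per bin multiplied by bin number.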

Variant	protein stability index
Y17M	3.73
Y17Q	4.26
Y17C	4.52
Y17N	4.32
Y17W	4.21
Y17V	4.3
Y17L	4.29
Y17E	4.95
Y17A	3.67
Y17F	4.35
Y17H	4.29
Y17T	4.28
Y17K	4.27
Y17P	4.97
Y17D	4.41
Y17S	4.06
Y17R	5.01
Y17G	4.47
Y17I	3.94
H13E	4.44
H13Y	3.57
H13D	3.59
H13S	3.33
H13F	3.81

Variant	protein stability index
H13A	4
H13V	3.62
H13W	3.15
H13P	4.32
H13N	4.19
H13M	3.02
H13C	3.37
H13R	3.8
H13I	3.42
H13T	3.02
H13L	3.99
H13Q	3.84
H13K	3.64
H13G	4.05
S21W	3.38
S21H	3.97
S21C	3.71
S21L	3.34
S21V	3.94
S21R	3.13
S21M	3.4
S21Y	3.05
S21E	4.64
S21I	4

Variant	protein stability index
S21D	4.56
S21T	3.75
S21K	3.46
S21A	3.71
S21Q	3.9
S21G	4.47
S21P	4.3
S21F	3.56
S21N	4.19
N5P	5.11
N5M	3.99
N5T	4.47
N5G	3.84
N5Q	4.33
N5R	3.92
N5F	3.95
N5W	4.38
N5S	4.46
N5L	3.19
N5V	3.5
N5Y	2.46
N5H	4.3
N5I	3.86
N5K	4.43

Variant	protein stability index
V16D	4.77
V16E	5.02
V16N	4.47
V16C	4.33
V16P	4.12
V16S	4.02
V16I	3.87
V16K	3.89
V16Q	4.02
V16W	3.73
V16T	4.05
V16R	3.17
V16H	3.55
V16G	4.16
V16A	4.26
V16L	4.09
V16Y	3.49
V16F	3.87
V16M	3.46
E19R	3.29
E19G	3.09
E19I	2.64
E19M	3.31
E19T	3.4

Variant	protein stability index
E19C	2.96
E19K	3.54
E19H	3.14
E19Q	3.29
E19W	2.72
E19P	3.52
E19V	3.15
E19A	3.53
E19F	2.86
E19Y	2.87
E19D	3.38
E19N	3.41
E19L	3.63
E19S	3.82
F18N	4.68
F18E	4.68
F18P	4.23
F18G	4.63
F18I	4.52
F18V	3.8
F18Y	4.76
F18S	4.62
F18W	3.52
F18R	4.28

Variant	protein stability index
F18L	4.5
F18M	4.48
F18D	5.29
F18K	3.51
F18C	3.59
F18A	4.12
F18T	4.63
F18H	4.64
F18Q	5.12
I6M	4.32
I6V	4.18
I6Q	4.19
I6D	4.86
I6P	4.4
I6Y	4.03
I6N	4.77
I6C	4.91
I6A	4.51
I6H	4.34
I6L	4.16
I6R	3.84
I6G	4.52
I6S	4.07
I6T	4.48

Variant	protein stability index
I6E	5.27
I6F	4.08
I6K	4.68
I6W	3.32
P20E	4.28
P20H	4.06
P20T	3.62
P20C	3.42
P20A	3.69
P20W	2.63
P20L	2.72
P20G	4.16
P20M	1.88
P20N	4.12
P20S	3.52
P20I	3.02
P20Y	2.99
P20Q	4.02
P20K	3.84
P20F	2.42
P20R	4.18
P20V	2.56
P20D	4.6
E7T	2.78

Variant	protein stability index
E7W	2.64
E7Y	2.11
E7C	3.32
E7G	3.58
E7P	3.34
E7L	3.16
E7A	3.65
E7D	3.83
E7H	3.98
E7S	3.02
E7Q	2.9
E7F	3.59
E7K	3.03
E7M	3.29
E7V	3.53
E7I	2.88
E7N	2.85
E7R	3.33
E14P	3.16
E14H	3.28
E14Y	1.86
E14N	3.82
E14D	3.59
E14W	2.88

Variant	protein stability index
E14G	3.28
E14Q	3.43
E14C	1.91
E14A	3.51
E14M	2.58
E14L	2.04
E14K	3.36
E14S	3.29
E14R	2.98
E14T	3.07
E14F	2.46
L8P	4.4
L8V	4.13
L8S	4.5
L8M	3.46
L8D	4.54
L8N	4.44
L8K	3.83
L8R	3.64
L8T	4
L8C	4.02
L8Y	3.52
L8A	4.46
L8Q	4.53

Variant	protein stability index
L8H	4.56
L8F	4.47
L8I	4.04
L8W	4.22
L8E	5.22
L8G	4.74
T10K	3.4
T10V	3.65
T10S	4.13
T10G	3.83
T10L	4.11
T10C	1.67
T10E	4.01
T10I	3.94
T10N	3.61
T10Y	3.83
T10D	4.74
T10Q	4.44
T10M	3.81
T10P	4
T10A	4.23
T10F	3.86
T10H	4.47
T10W	3.27

Variant	protein stability index
T10R	3.63
S22T	4.03
S22A	4.28
S22M	3.81
S22I	3.13
S22L	2.58
S22D	4.25
S22E	4.13
S22H	4.35
S22F	3.37
S22R	3.73
S22Q	4.13
S22N	4.12
S22G	3.85
S22V	3.95
S22C	3.89
S22P	4.02
S22K	3.9
P9A	3.46
P9N	4.06
P9W	2.98
P9R	3.6
P9D	3.46
P9C	3.53

Variant	protein stability index
P9M	3.35
P9F	3.01
P9T	3.69
P9E	4.21
P9Y	3.41
P9H	3.5
P9Q	4.08
P9K	3.89
P9V	2.94
P9L	3.65
P9I	3.3
P9S	3.31
P9G	3.53
E15A	3.35
E15T	3.9
E15S	3.54
E15Q	3.44
E15R	2.96
E15D	4.45
E15M	2.72
E15G	3.84
E15Y	3.22
E15P	2.96
E15N	3.29

Variant	protein stability index
E15W	2.75
E15H	3.63
E15C	2.97
E15K	3.52
E15L	3.27
E15F	2.62
E15V	2.6
E15I	2.28
R11F	3.42
R11K	3.77
R11H	3.43
R11T	4.27
R11D	4.49
R11S	4.07
R11W	3.52
R11I	3.58
R11V	4.14
R11A	4.7
R11P	4.09
R11Q	4.42
R11L	3.94
R11G	4.86
R11Y	3.26
R11E	4.5

Variant	protein stability index
R11C	3.62
R11M	4.16
R11N	4.39
I12W	3.59
I12K	3.64
I12G	4.39
I12L	3.89
I12M	3.6
I12Q	4.11
I12T	3.98
I12F	3.57
I12E	4.33
I12A	4.18
I12S	4.51
I12D	4.79
I12Y	3.87
I12P	3.86
I12H	3.42
I12V	4.25
I12N	3.69
I12R	3.06
I12C	3.22
